From PMC4751342

Experiments:
[1] = biological target: human Izumo1, immobilized AVEXIS bait, Q8IYV9; experiment: AVEXIS; conditions: chain shown with the change;; parent: est. 0.16; read off a plot
[2] = biological target: T1, mouse Izumo1, immobilized AVEXIS bait, Q9D9J7; experiment: AVEXIS; conditions: chain shown with the change;; parent: est. 0.51; read off a plot
T1 chain: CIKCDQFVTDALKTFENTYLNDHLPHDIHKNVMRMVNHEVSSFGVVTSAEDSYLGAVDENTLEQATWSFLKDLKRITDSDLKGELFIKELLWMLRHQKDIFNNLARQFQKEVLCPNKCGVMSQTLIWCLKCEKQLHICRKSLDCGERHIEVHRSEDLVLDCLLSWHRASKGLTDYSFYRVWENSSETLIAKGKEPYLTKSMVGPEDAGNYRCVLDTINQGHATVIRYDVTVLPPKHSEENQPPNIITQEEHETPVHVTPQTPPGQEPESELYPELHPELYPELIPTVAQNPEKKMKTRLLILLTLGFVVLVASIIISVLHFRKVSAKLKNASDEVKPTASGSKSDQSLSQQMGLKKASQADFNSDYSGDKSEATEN

Sequence of human Izumo1, immobilized AVEXIS bait, Q8IYV9 (Q8IYV9 22-350): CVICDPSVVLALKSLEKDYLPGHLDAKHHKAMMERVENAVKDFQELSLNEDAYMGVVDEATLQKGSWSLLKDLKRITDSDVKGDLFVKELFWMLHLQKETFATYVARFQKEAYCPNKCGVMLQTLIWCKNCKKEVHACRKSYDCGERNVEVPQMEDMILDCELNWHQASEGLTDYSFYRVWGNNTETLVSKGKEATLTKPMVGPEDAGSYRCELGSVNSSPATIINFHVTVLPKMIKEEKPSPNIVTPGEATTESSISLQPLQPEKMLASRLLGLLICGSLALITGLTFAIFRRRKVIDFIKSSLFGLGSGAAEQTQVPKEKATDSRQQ

response [1]: 0.17 A 485 nm | response [2]: 0.5 A 485 nm
B1: mouse Juno, wild type, AVEXIS prey, Q9EQF4 N185S (protein)
chain: GDKLLSVCMNSKRHKQEPGPEDELYQECRPWEDNACCTRSTSWEAHLEEPLLFNFSMMHCGLLTPACRKHFIQAICFHECSPNLGPWIQPVVPNGQEEQRVWGVPLCQEDCEDWWRACHSSLTCKSNWLHGWDWSEEKKHCPAHEPCLPFSYHFPTPDDLCEKIWSNTFKASPERRNSGRCLQKWFEPTLSNPNVEVALHFAG
